From patent US6001988, “High affinity nucleic acid ligands to lectins” (NeXstar Pharmaceuticals, Inc.)

Assays:
[1] = biological target: T1, L-selectin (LS-Rg) (Homo sapiens, UniProt P14151 P14151:39-332); assay: filter; room temp; 380 pM at 37 C; table prints SEQ 155, Table XII and text give 133; conditions: tags: human IgG2 Fc fusion (provided by A. Varki); label: 32P; hairpin
T1 chain: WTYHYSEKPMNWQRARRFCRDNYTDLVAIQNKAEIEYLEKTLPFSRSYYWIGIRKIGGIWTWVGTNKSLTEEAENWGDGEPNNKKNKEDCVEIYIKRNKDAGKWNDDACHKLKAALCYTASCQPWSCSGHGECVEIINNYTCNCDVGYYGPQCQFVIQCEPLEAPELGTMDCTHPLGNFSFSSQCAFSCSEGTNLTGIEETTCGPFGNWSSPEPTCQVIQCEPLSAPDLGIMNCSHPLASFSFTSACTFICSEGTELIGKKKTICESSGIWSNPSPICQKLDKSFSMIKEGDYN

[2] = biological target: T1, L-selectin (LS-Rg); assay: filter; room temp; 1.6 nM at 37 C; conditions: tags: human IgG2 Fc fusion (provided by A. Varki); label: 32P
[3] = biological target: T2, E-selectin (ES-Rg) (Homo sapiens, UniProt P16581 P16581:22-556); assay: filter; room temp, Ca/Mg buffer; conditions: tags: extracellular domain fused to human IgG1 Fc (provided by A. Varki); chain copies: 2 (dimeric Fc chimera, inferred)
T2 chain: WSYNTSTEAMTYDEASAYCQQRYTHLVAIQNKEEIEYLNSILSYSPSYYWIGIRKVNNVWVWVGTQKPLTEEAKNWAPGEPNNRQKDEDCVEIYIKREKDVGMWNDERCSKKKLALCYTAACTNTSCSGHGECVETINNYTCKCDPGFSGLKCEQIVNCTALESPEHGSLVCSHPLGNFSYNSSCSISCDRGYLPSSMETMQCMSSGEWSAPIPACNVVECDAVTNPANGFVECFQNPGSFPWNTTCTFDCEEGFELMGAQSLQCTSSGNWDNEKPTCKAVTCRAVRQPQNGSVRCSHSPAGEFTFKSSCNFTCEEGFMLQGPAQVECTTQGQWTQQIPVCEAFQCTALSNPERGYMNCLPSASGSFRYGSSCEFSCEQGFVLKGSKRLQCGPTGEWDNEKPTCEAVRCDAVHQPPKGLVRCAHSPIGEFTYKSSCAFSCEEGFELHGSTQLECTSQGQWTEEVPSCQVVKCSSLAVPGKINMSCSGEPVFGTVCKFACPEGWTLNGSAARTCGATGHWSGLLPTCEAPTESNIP

[4] = biological target: T3, P-selectin (PS-Rg) (Homo sapiens, UniProt P16109 P16109:42-321); assay: filter; room temp, Ca/Mg buffer; conditions: tags: lectin, EGF and first two CRD domains fused to human IgG1 Fc (provided by A. Varki); chain copies: 2 (dimeric Fc chimera, inferred)
T3 chain: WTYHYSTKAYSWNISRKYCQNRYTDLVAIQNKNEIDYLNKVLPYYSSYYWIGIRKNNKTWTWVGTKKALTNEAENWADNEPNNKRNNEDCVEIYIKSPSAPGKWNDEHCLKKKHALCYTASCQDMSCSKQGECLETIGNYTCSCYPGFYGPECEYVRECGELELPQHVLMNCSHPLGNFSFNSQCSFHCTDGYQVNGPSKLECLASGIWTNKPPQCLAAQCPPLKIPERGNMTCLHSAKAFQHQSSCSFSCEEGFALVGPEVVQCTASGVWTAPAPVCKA

[5] = biological target: T1, L-selectin (LS-Rg); assay: filter; room temp; 3.4 nM at 37 C; conditions: tags: human IgG2 Fc fusion (provided by A. Varki); label: 32P
[6] = biological target: T1, L-selectin (LS-Rg); assay: filter; room temp; 970 pM at 37 C; conditions: tags: human IgG2 Fc fusion (provided by A. Varki); label: 32P; hairpin
[7] = biological target: T1, L-selectin (LS-Rg); assay: filter; room temp; 8.5 nM at 37 C; conditions: tags: human IgG2 Fc fusion (provided by A. Varki); label: 32P; hairpin
[8] = biological target: T1, L-selectin (LS-Rg); assay: filter; room temp; 3.7 nM at 37 C; conditions: tags: human IgG2 Fc fusion (provided by A. Varki); label: 32P; hairpin
[9] = biological target: T1, L-selectin (LS-Rg); assay: filter; room temp; 1.2 nM at 37 C; Table XIV prints 110 nM; conditions: tags: human IgG2 Fc fusion (provided by A. Varki); label: 32P; hairpin
[10] = biological target: T1, L-selectin (LS-Rg); assay: filter; room temp; 1.0 nM at 37 C; conditions: tags: human IgG2 Fc fusion (provided by A. Varki); label: 32P; hairpin
[11] = biological target: T1, L-selectin (LS-Rg); assay: filter; room temp; 2.0 nM at 37 C; conditions: tags: human IgG2 Fc fusion (provided by A. Varki); label: 32P; hairpin

B1: 208 (ssDNA)
DNA: CTACCTACGATCTGACTAGCCACGTTTCAAGGGGTTACACGAAACGATTCACTCCTTGGCGCTTACTCTCATGTAGTTCC
**Q.** With B1 as the binder, how does the Kd [1] read?
**A.** The Kd was 0.11 nM.

B2: 239 (ssDNA)
DNA: CTACCTACGATCTGACTAGCCCACAGACAATCGCAGTCCCCGTGTAGCTCTGGGTGTCTGCTTACTCTCATGTAGTTCC
**Q.** With B2 as the binder, how does the Kd [2] read?
**A.** The Kd was 0.17 nM.

B3: 196 (ssDNA)
DNA: CTACCTACGATCTGACTAGCTGGCGGTACGGGCCGTGCACCCACTTACCTGGGAAGTGAGCTTACTCTCATGTAGTTCC
**Q.** Which results are given for B3?
**A.** Kd [3]: 50 nM; Kd [4]: 3400 nM; Kd [5]: 0.13 nM

B4: 193 (ssDNA)
DNA: CTACCTACGATCTGACTAGCCCAGGAGCACAGTACAAGGTGTTAAACGTAATGTCTGGTGCTTACTCTCATGTAGTTCC
**Q.** For B4, which Kd [6] is on record?
**A.** Its Kd is 0.088 nM.

B5: 108 (ssDNA)
DNA: CTACCTACGATCTGACTAGCGAGTAGCCAAGGCGTTAGACGGAGGGGGAATGTGAGCACAGCTTACTCTCATGTAGTTCC
**Q.** How did the Kd [7] turn out when B5 was run?
**A.** The Kd was 0.16 nM.

B6: 204 (ssDNA)
DNA: CTACCTACGATCTGACTAGCGGAACACGTGAGGTTTACAAGGCACTCGACGTAAACACTTGCTTACTCTCATGTAGTTCC
**Q.** Which results are given for B6?
**A.** Kd [3]: 1500 nM; Kd [4]: 2900 nM; Kd [8]: 0.1 nM

B7: 201 (ssDNA)
DNA: CTACCTACGATCTGACTAGCCAAGGTAACCAGTACAAGGTGCTAAACGTAATGGCTTCGGCTTACTCTCATGTAGTTCC
**Q.** How did the Kd [3] turn out when B7 was run?
**A.** Its Kd is 37 nM.

**Q.** What about the Kd [4] of the same binder?
**A.** Its Kd is 1000 nM.

**Q.** And the Kd [9]?
**A.** Its Kd is 0.11 nM.

B8: 183 (ssDNA)
DNA: CTACCTACGATCTGACTAGCGGCATCCCTGAGTCATTACAAGGTTCTTAACGTAATGTACGCTTACTCTCATGTAGTTCC
**Q.** How did the Kd [10] turn out when B8 was run?
**A.** The Kd was 0.17 nM.

B9: 182 (ssDNA)
DNA: CTACCTACGATCTGACTAGCTAGTGCTCCACGTATTCAAGGTGCTAAACGAAGACGGCCTGCTTACTCTCATGTAGTTCC
**Q.** With B9 as the binder, how does the Kd [11] read?
**A.** The Kd was 0.13 nM.
